Assay results published in IntAct's records for PubMed 25910212.

B1: U4/U6 small nuclear ribonucleoprotein Prp31 (Homo sapiens), Q8WWY3 (parent)
chain: MSLADELLADLEEAAEEEEGGSYGEEEEEPAIEDVQEETQLDLSGDSVKTIAKLWDSKMFAEIMMKIEEYISKQAKASEVMGPVEAAPEYRVIVDANNLTVEIENELNIIHKFIRDKYSKRFPELESLVPNALDYIRTVKELGNSLDKCKNNENLQQILTNATIMVVSVTASTTQGQQLSEEELERLEEACDMALELNASKHRIYEYVESRMSFIAPNLSIIIGASTAAKIMGVAGGLTNLSKMPACNIMLLGAQRKTLSGFSSTSVLPHTGYIYHSDIVQSLPPDLRRKAARLVAAKCTLAARVDSFHESTEGKVGYELKDEIERKFDKWQEPPPVKQVKPLPAPLDGQRKKRGGRRYRKMKERLGLTEIRKQANRMSFGEIEEDAYQEDLGFSLGHLGKSGSGRVRQTQVNEATKARISKTLQRTLQKQSVVYGGKSTIRDRSSGTASSVAFTPLQGLEIVNPQAAEKKVAEANQKYFSSMAEFLKVKGEKSGLMST
partner: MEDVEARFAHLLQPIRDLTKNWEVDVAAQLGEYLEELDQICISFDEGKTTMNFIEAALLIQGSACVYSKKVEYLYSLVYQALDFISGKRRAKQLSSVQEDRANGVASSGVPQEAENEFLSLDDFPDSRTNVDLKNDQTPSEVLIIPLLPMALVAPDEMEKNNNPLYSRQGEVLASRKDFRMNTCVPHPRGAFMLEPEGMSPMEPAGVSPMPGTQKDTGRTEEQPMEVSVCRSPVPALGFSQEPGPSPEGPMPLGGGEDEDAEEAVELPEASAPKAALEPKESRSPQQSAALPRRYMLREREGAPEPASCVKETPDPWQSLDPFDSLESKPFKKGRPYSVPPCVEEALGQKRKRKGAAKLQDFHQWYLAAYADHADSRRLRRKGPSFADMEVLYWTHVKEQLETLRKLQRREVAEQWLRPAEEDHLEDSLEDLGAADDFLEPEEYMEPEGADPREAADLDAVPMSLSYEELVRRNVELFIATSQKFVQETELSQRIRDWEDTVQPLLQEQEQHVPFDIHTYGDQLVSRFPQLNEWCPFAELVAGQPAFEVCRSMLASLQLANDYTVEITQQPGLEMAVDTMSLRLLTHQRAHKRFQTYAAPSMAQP
B2: Carbonic anhydrase-related protein (Homo sapiens), P35219 (parent)
chain: MADLSFIEDTVAFPEKEEDEEEEEEGVEWGYEEGVEWGLVFPDANGEYQSPINLNSREARYDPSLLDVRLSPNYVVCRDCEVTNDGHTIQVILKSKSVLSGGPLPQGHEFELYEVRFHWGRENQRGSEHTVNFKAFPMELHLIHWNSTLFGSIDEAVGKPHGIAIIALFVQIGKEHVGLKAVTEILQDIQYKGKSKTIPCFNPNTLLPDPLLRDYWVYEGSLTIPPCSEGVTWILFRYPLTISQLQIEEFRRLRTHVKGAELVEGCDGILGDNFRPTQPLSDRVIRAAFQ
partner: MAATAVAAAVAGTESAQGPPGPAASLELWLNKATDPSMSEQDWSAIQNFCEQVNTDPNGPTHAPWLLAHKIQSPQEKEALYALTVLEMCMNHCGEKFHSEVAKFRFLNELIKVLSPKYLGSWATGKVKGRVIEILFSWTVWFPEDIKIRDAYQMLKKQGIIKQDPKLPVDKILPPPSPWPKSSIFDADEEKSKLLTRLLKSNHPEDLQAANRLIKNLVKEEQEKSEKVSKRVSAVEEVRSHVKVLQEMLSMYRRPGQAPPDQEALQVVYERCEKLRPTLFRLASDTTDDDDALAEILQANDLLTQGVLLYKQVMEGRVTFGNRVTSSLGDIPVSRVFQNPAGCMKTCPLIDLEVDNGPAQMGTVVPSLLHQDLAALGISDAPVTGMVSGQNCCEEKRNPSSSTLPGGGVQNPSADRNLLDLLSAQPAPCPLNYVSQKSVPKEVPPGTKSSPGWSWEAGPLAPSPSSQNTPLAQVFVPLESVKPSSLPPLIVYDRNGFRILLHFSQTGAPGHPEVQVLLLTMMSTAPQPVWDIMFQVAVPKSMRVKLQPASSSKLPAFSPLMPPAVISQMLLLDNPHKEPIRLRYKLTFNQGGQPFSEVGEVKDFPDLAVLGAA
B3: ATP synthase mitochondrial F1 complex assembly factor 2 (Homo sapiens), Q8N5M1 (parent)
chain: MWRSCLRLRDGGRRLLNRPAGGPSASMSPGPTIPSPARAYAPPTERKRFYQNVSITQGEGGFEINLDHRKLKTPQAKLFTVPSEALAIAVATEWDSQQDTIKYYTMHLTTLCNTSLDNPTQRNKDQLIRAAVKFLDTDTICYRVEEPETLVELQRNEWDPIIEWAEKRYGVEISSSTSIMGPSIPAKTREVLVSHLASYNTWALQGIEFVAAQLKSMVLTLGLIDLRLTVEQAVLLSRLEEEYQIQKWGNIEWAHDYELQELRARTAAGTLFIHLCSESTTVKHKLLKE
partner: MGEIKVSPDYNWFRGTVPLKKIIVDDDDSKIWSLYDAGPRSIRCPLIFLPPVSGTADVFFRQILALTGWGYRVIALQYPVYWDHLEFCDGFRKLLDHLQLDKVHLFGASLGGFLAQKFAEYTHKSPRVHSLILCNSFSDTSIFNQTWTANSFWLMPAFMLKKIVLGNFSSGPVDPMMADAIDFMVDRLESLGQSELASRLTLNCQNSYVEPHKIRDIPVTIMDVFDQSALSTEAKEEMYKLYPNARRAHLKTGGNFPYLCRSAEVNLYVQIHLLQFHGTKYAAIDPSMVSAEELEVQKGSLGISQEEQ
B4: Forkhead box protein P3 (Homo sapiens), Q9BZS1 (parent)
chain: MPNPRPGKPSAPSLALGPSPGASPSWRAAPKASDLLGARGPGGTFQGRDLRGGAHASSSSLNPMPPSQLQLPTLPLVMVAPSGARLGPLPHLQALLQDRPHFMHQLSTVDAHARTPVLQVHPLESPAMISLTPPTTATGVFSLKARPGLPPGINVASLEWVSREPALLCTFPNPSAPRKDSTLSAVPQSSYPLLANGVCKWPGCEKVFEEPEDFLKHCQADHLLDEKGRAQCLLQREMVQSLEQQLVLEKEKLSAMQAHLAGKMALTKASSVASSDKGSCCIVAAGSQGPVVPAWSGPREAPDSLFAVRRHLWGSHGNSTFPEFLHNMDYFKFHNMRPPFTYATLIRWAILEAPEKQRTLNEIYHWFTRMFAFFRNHPATWKNAIRHNLSLHKCFVRVESEKGAVWTVDELEFRKKRSQRPSRCSNPTPGP
B5: Retinol dehydrogenase 12 (Homo sapiens), Q96NR8 (parent)
chain: MLVTLGLLTSFFSFLYMVAPSIRKFFAGGVCRTNVQLPGKVVVITGANTGIGKETARELASRGARVYIACRDVLKGESAASEIRVDTKNSQVLVRKLDLSDTKSIRAFAEGFLAEEKQLHILINNAGVMMCPYSKTADGFETHLGVNHLGHFLLTYLLLERLKVSAPARVVNVSSVAHHIGKIPFHDLQSEKRYSRGFAYCHSKLANVLFTRELAKRLQGTGVTTYAVHPGVVRSELVRHSSLLCLLWRLFSPFVKTAREGAQTSLHCALAEGLEPLSGKYFSDCKRTWVSPRARNNKTAERLWNVSCELLGIRWE
B6: H/ACA ribonucleoprotein complex subunit 3 (Homo sapiens), Q9NPE3 (parent)
chain: MFLQYYLNEQGDRVYTLKKFDPMGQQTCSAHPARFSPDDKYSRHRITIKKRFKVLMTQQPRPVL
partner: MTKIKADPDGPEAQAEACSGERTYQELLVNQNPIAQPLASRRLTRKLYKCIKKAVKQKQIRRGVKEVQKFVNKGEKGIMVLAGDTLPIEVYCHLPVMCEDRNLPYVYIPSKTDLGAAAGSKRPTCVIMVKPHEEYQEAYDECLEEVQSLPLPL
B7: N-chimaerin (Homo sapiens), P15882 (parent)
chain: MALTLFDTDEYRPPVWKSYLYQLQQEAPHPRRITCTCEVENRPKYYGREFHGMISREAADQLLIVAEGSYLIRESQRQPGTYTLALRFGSQTRNFRLYYDGKHFVGEKRFESIHDLVTDGLITLYIETKAAEYIAKMTINPIYEHVGYTTLNREPAYKKHMPVLKETHDERDSTGQDGVSEKRLTSLVRRATLKENEQIPKYEKIHNFKVHTFRGPHWCEYCANFMWGLIAQGVKCADCGLNVHKQCSKMVPNDCKPDLKHVKKVYSCDLTTLVKAHTTKRPMVVDMCIREIESRGLNSEGLYRVSGFSDLIEDVKMAFDRDGEKADISVNMYEDINIITGALKLYFRDLPIPLITYDAYPKFIESAKIMDPDEQLETLHEALKLLPPAHCETLRYLMAHLKRVTLHEKENLMNAENLGIVFGPTLMRSPELDAMAALNDIRYQRLVVELLIKNEDILF
B8: PiggyBac transposable element-derived protein 1 (Homo sapiens), Q96JS3 (parent)
chain: MYEALPGPAPENEDGLVKVKEEDPTWEQVCNSQEGSSHTQEICRLRFRHFCYQEAHGPQEALAQLRELCHQWLRPEMHTKEQIMELLVLEQFLTILPKELQPCVKTYPLESGEEAVTVLENLETGSGDTGQQASVYIQGQDMHPMVAEYQGVSLECQSLQLLPGITTLKCEPPQRPQGNPQEVSGPVPHGSAHLQEKNPRDKAVVPVFNPVRSQTLVKTEEETAQAVAAEKWSHLSLTRRNLCGNSAQETVMSLSPMTEEIVTKDRLFKAKQETSEEMEQSGEASGKPNRECAPQIPCSTPIATERTVAHLNTLKDRHPGDLWARMHISSLEYAAGDITRKGRKKDKARVSELLQGLSFSGDSDVEKDNEPEIQPAQKKLKVSCFPEKSWTKRDIKPNFPSWSALDSGLLNLKSEKLNPVELFELFFDDETFNLIVNETNNYASQKNVSLEVTVQEMRCVFGVLLLSGFMRHPRREMYWEVSDTDQNLVRDAIRRDRFELIFSNLHFADNGHLDQKDKFTKLRPLIKQMNKNFLLYAPLEEYYCFDKSMCECFDSDQFLNGKPIRIGYKIWCGTTTQGYLVWFEPYQEESTMKVDEDPDLGLGGNLVMNFADVLLERGQYPYHLCFDSFFTSVKLLSALKKKGVRATGTIRENRTEKCPLMNVEHMKKMKRGYFDFRIEENNEIILCRWYGDGIISLCSNAVGIEPVNEVSCCDADNEEIPQISQPSIVKVYDECKEGVAKMDQIISKYRVRIRSKKWYSILVSYMIDVAMNNAWQLHRACNPGASLDPLDFRRFVAHFYLEHNAHLSD
partner: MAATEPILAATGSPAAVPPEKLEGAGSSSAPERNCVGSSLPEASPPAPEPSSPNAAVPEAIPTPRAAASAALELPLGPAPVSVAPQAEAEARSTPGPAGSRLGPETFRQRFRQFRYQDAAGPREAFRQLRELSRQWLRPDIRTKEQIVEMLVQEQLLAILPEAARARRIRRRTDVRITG
B9: Emerin (Homo sapiens), P50402 (parent)
chain: MDNYADLSDTELTTLLRRYNIPHGPVVGSTRRLYEKKIFEYETQRRRLSPPSSSAASSYSFSDLNSTRGDADMYDLPKKEDALLYQSKGYNDDYYEESYFTTRTYGEPESAGPSRAVRQSVTSFPDADAFHHQVHDDDLLSSSEEECKDRERPMYGRDSAYQSITHYRPVSASRSSLDLSYYPTSSSTSFMSSSSSSSSWLTRRAIRPENRAPGAGLGQDRQVPLWGQLLLFLVFVIVLFFIYHFMQAEEGNPF

Variants of: B1
Conditions: with cndh2_human NCAPH2, Q6IBW4

Variant | effect of a mutation on the interaction
L107V | with no effect

Variants of: B2
Conditions: with gga2_human GGA2, Q9UJY4

Variant | effect of a mutation on the interaction
S100P | disrupting interaction strength

Variants of: B3
Conditions: with spg21_human SPG21, Q9NZD8

Variant | effect of a mutation on the interaction
W94R | disrupting interaction strength

Variants of: B4
Conditions: with RBPMS

Variant | effect of a mutation on the interaction
G52V | with no effect
Q70H | disrupting interaction strength
P187L | with no effect
I363V | disrupting interaction strength

Variants of: B4
Conditions: with pr20e_human PRR20E

Variant | effect of a mutation on the interaction
G52V | with no effect
Q70H | disrupting interaction strength
P187L | with no effect
I363V | disrupting interaction strength

Variants of: B5
Conditions: with RBPMS

Variant | effect of a mutation on the interaction
T49M | with no effect
L99I | with no effect
P230A | with no effect
C285Y | with no effect

Variants of: B6
Conditions: with nhp2_human NHP2, Q9NX24

Variant | effect of a mutation on the interaction
R34W | with no effect

Variants of: B7
Conditions: with nck2_human NCK2, O43639
Chain of nck2_human NCK2, O43639 (O43639 whole entry): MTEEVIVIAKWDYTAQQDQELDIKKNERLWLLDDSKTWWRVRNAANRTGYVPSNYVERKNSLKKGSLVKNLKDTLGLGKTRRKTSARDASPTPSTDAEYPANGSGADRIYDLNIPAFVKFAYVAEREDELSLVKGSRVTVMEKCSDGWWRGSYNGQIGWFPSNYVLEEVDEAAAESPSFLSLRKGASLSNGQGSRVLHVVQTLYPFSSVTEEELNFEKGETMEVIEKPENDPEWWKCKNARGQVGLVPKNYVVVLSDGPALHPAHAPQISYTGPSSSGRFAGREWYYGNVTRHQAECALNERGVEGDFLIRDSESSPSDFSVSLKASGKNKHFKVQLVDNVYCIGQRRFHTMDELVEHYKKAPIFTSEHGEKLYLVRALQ

Variant | effect of a mutation on the interaction
L20F | with no effect
A223V | with no effect
G228S | with no effect
P252Q | with no effect

Variants of: B8
Conditions: with scnd1_human SCAND1, P57086

Variant | effect of a mutation on the interaction
G244E | with no effect
Q248E | with no effect
I678V | with no effect
H806D | with no effect
P256L | with no effect

Variants of: B9
Conditions: with vapb_human VAPB

Variant | effect of a mutation on the interaction
S54F | with no effect
D72V | with no effect
P183H | with no effect

Variants of: B9
Conditions: with tri42_human TRIM42, Q8IWZ5
Chain of tri42_human TRIM42, Q8IWZ5 (Q8IWZ5 whole entry): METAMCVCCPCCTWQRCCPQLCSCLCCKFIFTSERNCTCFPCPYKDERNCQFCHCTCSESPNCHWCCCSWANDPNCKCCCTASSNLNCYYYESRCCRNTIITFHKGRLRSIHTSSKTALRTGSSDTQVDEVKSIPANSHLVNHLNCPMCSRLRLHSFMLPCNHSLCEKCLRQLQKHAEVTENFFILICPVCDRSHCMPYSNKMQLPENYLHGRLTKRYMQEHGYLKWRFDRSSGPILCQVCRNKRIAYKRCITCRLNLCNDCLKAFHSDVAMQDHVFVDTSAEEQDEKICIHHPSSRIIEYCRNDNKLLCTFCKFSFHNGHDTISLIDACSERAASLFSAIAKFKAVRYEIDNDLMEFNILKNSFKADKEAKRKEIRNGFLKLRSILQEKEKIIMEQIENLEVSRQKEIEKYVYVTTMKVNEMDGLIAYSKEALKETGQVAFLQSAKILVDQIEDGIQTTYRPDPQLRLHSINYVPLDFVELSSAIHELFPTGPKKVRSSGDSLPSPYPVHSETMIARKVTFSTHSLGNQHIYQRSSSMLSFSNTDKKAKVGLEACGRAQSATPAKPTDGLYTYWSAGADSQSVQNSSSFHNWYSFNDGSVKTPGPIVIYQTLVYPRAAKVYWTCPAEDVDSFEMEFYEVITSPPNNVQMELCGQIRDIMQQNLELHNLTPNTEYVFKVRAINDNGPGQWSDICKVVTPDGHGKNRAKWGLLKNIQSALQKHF

Variant | effect of a mutation on the interaction
S54F | with no effect
D72V | with no effect
P183H | with no effect

Variants of: B9
Conditions: with stx4_human STX4, Q12846
Chain of stx4_human STX4, Q12846 (Q12846 whole entry): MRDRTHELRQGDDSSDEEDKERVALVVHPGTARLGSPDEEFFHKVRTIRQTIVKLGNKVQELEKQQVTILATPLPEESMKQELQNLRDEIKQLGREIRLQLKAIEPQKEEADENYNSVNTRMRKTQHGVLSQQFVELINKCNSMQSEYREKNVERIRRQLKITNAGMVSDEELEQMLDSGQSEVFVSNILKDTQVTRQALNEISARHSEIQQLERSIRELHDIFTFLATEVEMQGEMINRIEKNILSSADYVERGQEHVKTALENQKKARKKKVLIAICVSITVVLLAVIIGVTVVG

Variant | effect of a mutation on the interaction
S54F | with no effect
D72V | with no effect
P183H | with no effect

Variants of: B9
Conditions: with meox2_human MEOX2, P50222
Chain of meox2_human MEOX2, P50222 (P50222 whole entry): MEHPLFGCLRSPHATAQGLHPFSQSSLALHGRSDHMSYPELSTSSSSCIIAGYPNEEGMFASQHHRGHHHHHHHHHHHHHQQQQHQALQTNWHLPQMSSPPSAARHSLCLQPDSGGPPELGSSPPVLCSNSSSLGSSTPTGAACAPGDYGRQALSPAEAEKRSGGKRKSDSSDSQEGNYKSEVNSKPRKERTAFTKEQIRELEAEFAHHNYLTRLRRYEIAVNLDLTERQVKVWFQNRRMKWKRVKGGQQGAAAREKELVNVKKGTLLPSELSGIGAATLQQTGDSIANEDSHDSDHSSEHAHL

Variant | effect of a mutation on the interaction
S54F | with no effect
D72V | with no effect
P183H | with no effect

Variants of: B9
Conditions: with ccd33_human CCDC33, Q8N5R6
Chain of ccd33_human CCDC33, Q8N5R6 (Q8N5R6 whole entry): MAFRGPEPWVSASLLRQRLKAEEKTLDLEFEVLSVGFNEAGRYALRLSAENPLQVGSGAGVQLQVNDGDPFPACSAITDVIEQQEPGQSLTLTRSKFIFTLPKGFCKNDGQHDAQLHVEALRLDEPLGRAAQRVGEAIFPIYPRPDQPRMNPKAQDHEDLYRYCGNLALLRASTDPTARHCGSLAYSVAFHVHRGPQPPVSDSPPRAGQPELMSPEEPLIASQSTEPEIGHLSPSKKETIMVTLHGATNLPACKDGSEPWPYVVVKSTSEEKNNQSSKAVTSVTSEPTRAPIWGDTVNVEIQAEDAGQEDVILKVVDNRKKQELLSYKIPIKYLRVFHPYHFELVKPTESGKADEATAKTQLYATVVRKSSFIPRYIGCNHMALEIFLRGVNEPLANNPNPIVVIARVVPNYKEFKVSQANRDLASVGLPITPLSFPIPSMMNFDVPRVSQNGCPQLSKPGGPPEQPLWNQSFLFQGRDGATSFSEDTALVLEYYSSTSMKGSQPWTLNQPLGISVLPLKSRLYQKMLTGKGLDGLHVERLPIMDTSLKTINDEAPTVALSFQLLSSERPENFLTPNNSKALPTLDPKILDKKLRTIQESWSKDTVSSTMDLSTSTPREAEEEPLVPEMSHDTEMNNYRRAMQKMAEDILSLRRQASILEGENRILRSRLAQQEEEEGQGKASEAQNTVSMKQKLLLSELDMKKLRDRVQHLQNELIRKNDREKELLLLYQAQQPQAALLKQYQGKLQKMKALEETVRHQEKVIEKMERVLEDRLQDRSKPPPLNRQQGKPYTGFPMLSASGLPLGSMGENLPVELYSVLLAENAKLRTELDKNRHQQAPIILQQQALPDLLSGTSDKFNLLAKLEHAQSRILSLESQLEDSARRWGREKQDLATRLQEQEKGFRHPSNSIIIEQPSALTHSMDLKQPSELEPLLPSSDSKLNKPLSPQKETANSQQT

Variant | effect of a mutation on the interaction
S54F | with no effect
D72V | with no effect
P183H | with no effect
